# Assay results from article PMC12123462, “Novel Click Coupling Chemistry to Explore Glycan Recognition” (ACS Central Science, 2025).
# Substrate: CC(=O)N[C@H]1[C@H]([C@H](O)[C@H](O)CO)O[C@](OP(=O)(O)OC[C@H]2O[C@@H](n3ccc(N)nc3=O)[C@H](O)[C@@H]2O)(C(=O)O)C[C@@H]1O
# Assay: neoglycoprotein ELISA, product detected with APDye-532 SNA
# Type: biochemical, Homo sapiens
# Details: acceptor BSA-LNnT immobilised (250 ng/well), MES pH 6.5, 37 °C, 2 h
# Description: neoglycoprotein ELISA, product detected with APDye-532 SNA on recombinant human ST6Gal1 | K m of CMP-Sia for the recombinant human ST6Gal1
protein,measurement,value
"recombinant human ST6Gal1 (Homo sapiens) (protein, recombinant) KEKKKGSYYDSFKLQTKEFQVLKSLGKLAMGSDSQSVSSSSTQDPHRGRQTLGSLRGLAKAKPEASFQVWNKDSSSKNLIPRLQKIWKNYLSMNKYKVSYKGPGPGIKFSAEALRCHLRDHVNVSMVEVTDFPFNTSEWEGYLPKESIRTKAGPWGRCAVVSSAGSLKSSQLGREIDDHDAVLRFNGAPTANFQQDVGTKTTIRLMNSQLVTTEKRFLKDSLYNEGILIVWDPSVYHSDIPKWYQNPDYNFFNNYKTYRKLHPNQPFYILKPQMPWELWDILQEISPEEIQPNPPSSGMLGIIIMMTLCDQVDIYEFLPSKRKTDVCYYYQKFFDSACTMGAYHPLLYEKNLVKHLNQGTDEDIYLLGKATLPGFRTIHC",Km,141.4 µM
